# Measured values taken from article PMC6720803, “Stability Evaluation and Stabilization of a Gastrin-Releasing Peptide Receptor (GRPR) Targeting Imaging Pharmaceutical” (Molecules, 2019).
# Legend:
# [1] = log D by shake-flask method; format: physicochemical
# Method: The log D values were determined by a traditional shake-flask method. In a typical experiment, 10 μL sample of ^177Lu-labeled AMBA or RM1 with 0.037–0.052 GBq/mL radioconcentration and 814 GBq/mmol molar activity were added to a 4 mL mixture of 50:50 octanol:water. The mixture was shaken for one minute and mixed well. The sample was stored at room temperature for 5 min for separation of the two layers. Sample from each layer (25 μL) was added to a counting tube containing 250 μL water. The samples were mixed and counted. Triplicate measurements were made. The log D values were calculated using Equation (1): D = Counts in organic phase/Counts in the aqueous phase.(1)
# [2] = format: physicochemical; conditions: pH 7.2
# Method: A dose calibrator (Capintec, Florham Park, NJ, USA) and a Wizard 2480 gamma counter (Perkin Elmer, Waltham, MA, USA) were used for radioactivity measurements in the samples. A model 1100 Agilent HPLC system (Agilent, Wilmington, DE, USA) was used for the analysis of ^177Lu-labeled RM1 and AMBA and stability samples. The system consisted of a quaternary pump, degasser, column compartment capable of controlling the temperature at ambient or at 37 °C, auto-injector, a multiwavelength detector, and a Flow Ram radioisotope detector (Lab Logic, Sheffield, UK). The system was controlled by Laura software from Lab Logic. […] Zorbax Bonus RP C18 column (4.6 × 250 mm, 5 µm) was used for the analysis of ^177Lu-labeled AMBA and RM1 samples and for the separation of the ^177Lu-labeled AMBA and RM1 from their in vitro metabolic degradants in mouse, human, and canine sera stability samples.
# (§1) All mass spectral analyses were performed at the Campus Chemical Instrument Center of the Ohio State University (Columbus, OH, USA) using a Bruker UltrafleXtreme MALDI-TOF MS system. […]
# [3] = In vitro human serum stability; format: in vitro ADME; conditions: 50 µL labeled peptide + 450 µL human serum, 37 °C, RP-HPLC, read-out: degradation in human serum
# Method: (§2) For mouse, canine, and human sera stability studies, 50 µL of ^177Lu-labeled RM1 or AMBA was mixed with 450 µL of mouse or canine or human serum. The mixtures were incubated at 37 °C for 24 h, samples were processed at each time point, and analyzed by an RP-HPLC method.
# as §1
# (§3) A literature procedure was followed for the serum stability studies of ^177Lu-labeled RM1 and AMBA [37, 43]. […] Several mixtures, containing 50 µL of ^177Lu-labeled RM1 or AMBA (usually 1.48 to 2.22 MBq radioactivity) and 450 µL of the mouse or human or canine serum, were prepared in HPLC vials and incubated at 37 °C in the block heater. […] The sample was then centrifuged at 6000 rpm for 15 min, and 200 µL of the supernatant solution was isolated and analyzed by an RP- HPLC method given above. A control experiment was conducted where samples of ^177Lu-labeled AMBA and RM1 were incubated in the water at 37 °C and analyzed by the RP-HPLC method.
# (§4) Degradation of ^177Lu-labeled RM1 or AMBA was monitored by a reduction in percent HPLC peak area with time. […]
# [4] = Stability of low-radioconcentration samples in acetate buffer; format: physicochemical; conditions: pH 5
# Method: The final pH of the ^177Lu-labeled RM1 and AMBA, post radiolabeling, was usually ~5 to 5.5, and the acetate buffer concentration was 0.1 M. Consequently, the degradation kinetics of ^177Lu-labeled RM1 and AMBA were evaluated in this environment after storage at room temperature (25 °C) and 2–8 °C for 5 d. Both samples were analyzed using an RP-HPLC method at various time points.
# as §1
# All samples of ^177Lu-labeled RM1 were prepared in 0.1 M acetate buffer, pH 5–5.5. […] The stability or degradation of the samples was monitored by a reduction in the percent HPLC peak area of ^177Lu-labeled RM1 with time.
# Degradation of ^177Lu-labeled RM1 or AMBA was monitored by a reduction in percent HPLC peak area with time. Half-lives of in vitro acetate buffer and serum degradation for each imaging pharmaceutical were calculated by fitting the percent peak remaining versus time to a first-order kinetics model (Equations (2) and (3)) using Excel or Graph Pad Prism version 5.03 software (Graph Pad Software, Inc., La Jolla, CA, USA). […]
# [5] = format: in vitro ADME, mouse
# Method: as §2, §1, §3, §4
# [6] = Stability of high-radioconcentration samples in acetate buffer without and with stabilizers; format: physicochemical; conditions: 2–8 °C; for half-life of degradation (t1/2): 0.1 M acetate buffer pH 5, high radioconcentration (0.74 GBq/mL), RP-HPLC, first-order fit, average (SD) n = 3
# Method: The ^177Lu-labeled RM1 samples in acetate buffer, with 0.74 GBq/mL radio concentration, 10,175–12,765 GBq/mmol molar activity, and >99% RCP, were prepared for high-radioconcentration sample stability studies. […] Degradation of the high-radioconcentration sample in acetate buffer was at least 20 times faster than the degradation of the low-radioconcentration samples of ^177Lu-labeled RM1.
# All mass spectral analyses were performed at the Campus Chemical Instrument Center of the Ohio State University (Columbus, OH, USA) using a Bruker UltrafleXtreme MALDI-TOF MS system. An RP-HPLC method, involving a gradient mobile phase system of 50 mM Tris acetate, 10 mM EDTA at pH 7.2 (solvent A), and acetonitrile (solvent B) with 1 mL/min flow rate, was used to monitor the extent of the reaction of ^177Lu/Lu with AMBA and RM1; for the purity analysis of RM1, AMBA, Lu-RM1, Lu-AMBA, and of the final ^177Lu-labeled samples; and for monitoring the degradation of ^177Lu-labeled RM1 or AMBA samples in acetate buffer, mouse, canine, and human sera. The EDTA was incorporated to detect any unreacted ^177Lu/Lu in the samples. The gradient program used was 0% B at the beginning, raising the percentage of B to 50% in 15 min, holding B at 50% for 4 min, followed by decreasing the percentage of B to 0% in 5 min and continuing 0% for an additional 9 min. The total run time was […].
# All samples of ^177Lu-labeled RM1 were prepared in 0.1 M acetate buffer, pH 5–5.5. The ^177Lu-labeled RM1 samples, with a low radioconcentration, were stored at room temperature and at 2–8 °C storage conditions for 6 d for stability studies. The samples with a high radioconcentration, without and with a stabilizer (gentisic acid or ascorbic acid), were stored 2–8 °C for 2 and 7 d, respectively. For the effect of stabilizer (ascorbic acid or gentisic acid) on the stability of the high-radioconcentration samples of ^177Lu-labeled RM1, the samples were mixed with 500 µg of ascorbic or gentisic acid post radiolabeling. The stability or degradation of the samples was monitored by a reduction in the percent HPLC peak area of ^177Lu-labeled RM1 with time.
# Degradation of ^177Lu-labeled RM1 or AMBA was monitored by a reduction in percent HPLC peak area with time. Half-lives of in vitro acetate buffer and serum degradation for each imaging pharmaceutical were calculated by fitting the percent peak remaining versus time to a first-order kinetics model (Equations (2) and (3)) using Excel or Graph Pad Prism version 5.03 software (Graph Pad Software, Inc., La Jolla, CA, USA). Pt = P0 exp (−k × t);(2) t1/2 = 0.693/k;(3) where Pt is the percent peak area at time t, Po is the percent peak area initially, t is the time elapsed, k is the first-order rate constant, and t1/2 is the half-life of degradation reaction. All degradation kinetics experiments were conducted in triplicate, and average (n = 3) values (standard deviation given in the parenthesis) of half-life are reported.
# [7] = test system: gastrin-releasing peptide (GRP) receptors in a PC-3 cell line; set-up: method as in PMID 16818949, PMID 16909223; conditions: GRP receptors in PC-3 cell line; cited from earlier work
# Method: The first proof-of-concept GRPR targeting study was conducted using a ^99mTc-labeled BBN (7–14) conjugate (RP527) for breast and prostate cancer imaging. […] Despite the general consensus rel ...
# GRPR = test system: GRPR; set-up: method as in PMID 23763444, PMID 24312607; conditions: cell binding and internalization; cited from earlier work
# PC-3 tumor = conditions: mouse, in vivo; cited from earlier work
# Source text: Several classes of BBN antagonists have been designed by modifying the C-terminal residues of naturally amidated BBN agonists. […] Additionally, ^68Ga-, ^111In-, and ^18F-AlF-labeled NOTA-PEG2-RM26 (where RM26 = D-Phe-Gln-Trp-Ala-Val-Gly-His-Sta-L ...
compound,measurement,setting,value
CC(C)C[C@H](NC(=O)C[C@H](O)[C@H](CC(C)C)NC(=O)[C@H](Cc1c[nH]cn1)NC(=O)CNC(=O)[C@@H](NC(=O)[C@H](C)NC(=O)[C@H](Cc1c[nH]c2ccccc12)NC(=O)[C@H](CCC(N)=O)NC(=O)[C@@H](Cc1ccccc1)NC(=O)c1ccc(NC(=O)CNC(=O)CN2CCN(CC(=O)O)CCN(CC(=O)O)CCN(CC(=O)O)CC2)cc1)C(C)C)C(N)=O [Lu-RM1],log D,[1],−2.46 (0.07)
same,relative lipophilicity from retention times,[2],slightly more lipophilic than Lu-AMBA
"CC(C)C[C@H](NC(=O)C[C@H](O)[C@H](CC(C)C)NC(=O)[C@H](Cc1c[nH]cn1)NC(=O)CNC(=O)[C@@H](NC(=O)[C@H](C)NC(=O)[C@H](Cc1c[nH]c2ccccc12)NC(=O)[C@H](CCC(N)=O)NC(=O)[C@@H](Cc1ccccc1)NC(=O)c1ccc(NC(=O)CNC(=O)CN2CCN(CC(=O)O)CCN(CC(=O)O)CCN(CC(=O)O)CC2)cc1)C(C)C)C(N)=O [^177Lu-labeled RM1, metal not drawn]",metabolised at 24 h,[3],< 10%
same,degraded in acetate buffer within the same time period as the mouse serum study,[4],10-12%
same,degradation after 1440 min incubation,[5],complete degradation
same,half-life of degradation (t1/2),[6]; 500 µg ascorbic acid,39.2 (0.6) h
same,half-life of degradation (t1/2),[6]; 500 µg gentisic acid,142.5 (1.4) h
same,half-life of degradation (t1/2),[6]; no stabilizer,8.5 (0.2) h
same,"degradation of high- versus low-radioconcentration samples, times faster",[6]; acetate buffer,at least 20 times
same,improvement of stability versus no stabilizer,"[6]; high radioconcentration, 500 µg gentisic acid",~17 fold
same,factor by which degradation is reduced versus control without stabilizer,"[6]; high radioconcentration, ascorbic acid",≥ 5
"DO3A-CH2CO-G-[4-aminobenzyl]- Gln-Trp-Ala-Val-Gly-His-Leu-Met-NH2 [AMBA, GRPR agonist, BBN-like peptide chelator conjugate, gift from Bracco Diagnostics]",IC50,[7],4.75 ± 0.25 nM
NOTA-PEG2-RM26 (where RM26 = D-Phe-Gln-Trp-Ala-Val-Gly-His-Sta-Leu-NH2) [^68Ga-labeled NOTA-PEG2-RM26],IC50,GRPR,0.91 ± 0.19 nM
same,specific tumor uptake,PC-3 tumor,8.1 ± 0.4 %ID/g
NOTA-PEG2-RM26 (where RM26 = D-Phe-Gln-Trp-Ala-Val-Gly-His-Sta-Leu-NH2) [^111In-labeled NOTA-PEG2-RM26],IC50,GRPR,1.24 ± 0.29 nM
same,specific tumor uptake,PC-3 tumor,5.7 ± 0.3 %ID/g
